According to patent US5352587A, “Compositions and methods for the synthesis of natriuretic protein receptor B and methods of use” (Genentech, Inc., priority 1991, dated 1994):
Blank lines part the entries; values can stand above or below the molecule they belong to. Ends that are not written are not given here.

Experiments:
[1] = test system: guanylyl cyclase; assay: Detergent-solubilized membrane (particulate) guanylyl cyclase activity of transfected COS cells; assay type: biochemical, human; details: for guanylyl cyclase specific activity, fold higher than control cells: COS-2 cells, membrane fraction; for Guanylyl Cyclase Activity: Table 2, transfected COS-7 cells, mean ± standard deviation of triplicate determinations
Protocol: To examine the biochemical properties of the NPRB receptor, we constructed an expression vector in which the coding sequence was placed under the transcriptional control of the cytomegalovirus immediate-early promoter (Table 2). The vector pRK is disclosed in EP 307,247, published Mar. 15, 1989. The NPRB expression vector was transfected into […] in a transient expression assay and the detergent solubilized guanylyl cyclase activity of a membrane fraction was measured (Table 2). Cells transfected with the NPRB expression vector has about eleven-fold higher guanylyl cyclase specific activity that control cells, while cells transfected with an NPRA receptor expression vector^5 using pRK has a six-fold higher guanylyl cyclase specific activity. Specific binding of [^125 l]-human ANP (ANP) and [^125 l]-porcine BNP (pBNP) to transfected cells was determined in the presence of absence of unlabeled peptides.
COS-7 cells maintained in Dulbecco's modified Eagles' medium (DMEM) supplemented with 10% fetal calf serum were seeded at 5×10^6 cells per 100 mm plate (GC assay) or 1×10^5 per 35 mm plate (binding assay). Twelve house later, cells were transfected with control vector^5 (1 mg/ml) using DEAE-dextran. The vector pRK-NPRBR contained nucleotides 253 to 3470 (FIG. 1) of the NPRB receptor in the expression vector pRK5 under the control of the cytomegalovirus immediate early promoter.
Guanylate cyclase activity was determined forty-eight hours after transfection, the cells were washed with phosphate buffer saline (PBS), scraped into 4 ml PBS and homogenized with 40 strokes of a Dounce homogenizer at 0° C. Nuclei were pelleted and the supernatant was centrifuged at 100,000 xg for 30 minutes in SW 55- Ti rotor to obtain a membrane pellet. Membrane proteins were solubilized by incubation or ice for 10 minutes in solution containing 20 mM Hepes, pH 7.4, 200 mM NaCl, 10% glycerol, 1% Triton X-100 and 1 mM dithiothreitol. Protein concentrations were measured by a dye binding assay (BioRad). Gyanylate cyclase reactions contained […] of membrane proteins in […] of 20 mM Hepes pH 7.4, 30 units of creatine phosphokinase, 1 mM GTP, 4 mM MnCl2 and 0.5 mM isobutyl methylxanthine (IBMX). After incubation at 37° C. for 10 minutes the reaction was stopped by addition of […] of 50 mM acetic acid (pH 6.2) and boiled for 3 min. Aliquots were analyzed for cGMP after acetylation with 1/20 volume of acetic anhydride/triethylamine (1:2) then radioimmuno-assay (Biomedical Technologies, Inc.). Results are expressed in Table 2 as the mean±standard deviation of triplicate determinations.

[2] = target: T1, NPRB (Homo sapiens, UniProt P20594); assay: Specific binding to COS-7 cells transfected with pRK-NPRB; details: Table 2, 0.5 nM, room temperature, 1 hr
T1 construct: whole cells or solubilized membranes
T1 sequence (P20594 23-1047): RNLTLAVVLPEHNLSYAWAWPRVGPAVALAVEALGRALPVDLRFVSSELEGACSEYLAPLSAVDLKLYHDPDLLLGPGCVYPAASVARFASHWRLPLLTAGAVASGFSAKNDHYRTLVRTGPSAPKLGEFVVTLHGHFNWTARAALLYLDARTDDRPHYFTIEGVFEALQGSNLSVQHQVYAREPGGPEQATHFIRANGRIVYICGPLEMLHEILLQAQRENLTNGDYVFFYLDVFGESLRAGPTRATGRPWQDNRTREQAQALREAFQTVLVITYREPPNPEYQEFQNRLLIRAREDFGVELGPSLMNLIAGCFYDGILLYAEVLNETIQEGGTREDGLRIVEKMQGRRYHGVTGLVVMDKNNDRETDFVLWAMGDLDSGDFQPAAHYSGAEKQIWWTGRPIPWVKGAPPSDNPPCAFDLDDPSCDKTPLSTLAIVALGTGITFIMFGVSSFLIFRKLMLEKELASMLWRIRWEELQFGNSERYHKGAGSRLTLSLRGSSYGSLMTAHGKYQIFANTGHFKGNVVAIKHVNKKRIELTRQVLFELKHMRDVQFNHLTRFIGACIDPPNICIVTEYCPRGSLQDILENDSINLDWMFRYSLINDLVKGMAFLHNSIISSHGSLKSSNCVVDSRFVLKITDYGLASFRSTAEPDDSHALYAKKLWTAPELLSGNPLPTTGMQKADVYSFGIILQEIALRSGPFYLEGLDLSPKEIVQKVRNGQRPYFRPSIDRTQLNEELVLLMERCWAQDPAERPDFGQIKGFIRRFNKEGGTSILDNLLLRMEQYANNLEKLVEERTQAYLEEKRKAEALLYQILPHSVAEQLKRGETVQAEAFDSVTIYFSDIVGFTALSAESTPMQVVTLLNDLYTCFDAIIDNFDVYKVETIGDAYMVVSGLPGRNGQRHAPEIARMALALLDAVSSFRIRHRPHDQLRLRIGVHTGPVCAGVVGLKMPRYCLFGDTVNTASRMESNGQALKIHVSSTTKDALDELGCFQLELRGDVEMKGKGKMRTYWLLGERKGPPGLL
Protocol: (§1) To examine the biochemical properties of the NPRB receptor, we constructed an expression vector in which the coding sequence was placed under the transcriptional control of the cytomegalovirus immediate-early promoter (Table 2). […] The NPRB expression vector was transfected into COS-2 cells in a transient expression assay and the detergent solubilized guanylyl cyclase activity of a membrane fraction was measured (Table 2). […] Specific binding of [^125 l]-human ANP (ANP) and [^125 l]-porcine BNP (pBNP) to transfected cells was determined in the presence of absence of unlabeled peptides.
(§2) COS-7 cells maintained in Dulbecco's modified Eagles' medium (DMEM) supplemented with 10% fetal calf serum were seeded at 5×10^6 cells per 100 mm plate (GC assay) or 1×10^5 per 35 mm plate (binding assay). Twelve house later, cells were transfected with control vector^5 (1 mg/ml) using DEAE-dextran.
(§3) Following the incubation, cells were rinsed with cold PBS, and dissolved in 2 ml of 0.2M NaOH and radioactivity was measured in gamma counter. All measurements were in triplicate. […] Specific binding in table 2 was calculated by subtracting the background binding from the total binding.

[3] = target: T2, NPRA (Homo sapiens, UniProt P16066); assay: Specific binding to COS-7 cells transfected with pRK-NPRA; details: Table 2, 0.5 nM, room temperature, 1 hr
T2 construct: whole cells or solubilized membranes
T2 sequence (P16066 33-1061): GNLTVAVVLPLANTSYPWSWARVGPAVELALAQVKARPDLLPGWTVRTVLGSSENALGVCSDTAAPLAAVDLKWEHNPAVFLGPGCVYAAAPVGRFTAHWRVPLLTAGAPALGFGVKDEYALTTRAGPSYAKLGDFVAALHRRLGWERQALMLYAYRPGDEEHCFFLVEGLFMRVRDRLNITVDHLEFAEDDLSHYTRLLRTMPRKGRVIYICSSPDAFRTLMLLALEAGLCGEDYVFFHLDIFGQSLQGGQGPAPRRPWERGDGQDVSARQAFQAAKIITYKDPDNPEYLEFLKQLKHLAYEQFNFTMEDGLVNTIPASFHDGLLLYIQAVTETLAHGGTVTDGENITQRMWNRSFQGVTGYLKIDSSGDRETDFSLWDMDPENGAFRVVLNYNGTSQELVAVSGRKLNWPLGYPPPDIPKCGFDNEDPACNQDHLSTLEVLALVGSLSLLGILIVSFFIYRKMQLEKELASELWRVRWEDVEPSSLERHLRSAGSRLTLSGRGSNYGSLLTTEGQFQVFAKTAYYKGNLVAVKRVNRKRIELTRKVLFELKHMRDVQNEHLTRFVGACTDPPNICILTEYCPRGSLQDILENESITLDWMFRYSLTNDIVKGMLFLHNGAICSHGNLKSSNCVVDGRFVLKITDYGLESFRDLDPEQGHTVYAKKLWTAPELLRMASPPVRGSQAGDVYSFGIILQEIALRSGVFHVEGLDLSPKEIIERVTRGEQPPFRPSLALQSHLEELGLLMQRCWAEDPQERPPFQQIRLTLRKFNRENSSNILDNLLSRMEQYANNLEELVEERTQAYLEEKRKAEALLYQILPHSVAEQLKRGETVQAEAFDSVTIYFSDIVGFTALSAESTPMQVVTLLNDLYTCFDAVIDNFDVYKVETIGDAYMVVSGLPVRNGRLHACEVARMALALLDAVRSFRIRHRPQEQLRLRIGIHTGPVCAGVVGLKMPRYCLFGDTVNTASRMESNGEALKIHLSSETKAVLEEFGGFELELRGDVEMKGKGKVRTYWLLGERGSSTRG
Protocol: as §1, §2, §3

[4] = target: T1, NPRB; assay: Transient expression whole-cell stimulation of cGMP production, NPRB-transfected COS-7 cells; assay type: cell-based
Protocol: Ligand-dependent activation of the cytoplasmic guanylyl cyclase (GC) domains of the human NPRB and NPRA receptors was examined in transient expression whole-cell stimulation assays. In FIG. 3, the natriuretic peptide stimulation of cGMP production is shown. COS-7 cells transfected with pRK (control; pane C), human NPRA expression vector^5 (panel A), or human NPRB receptor expression vector (panel B) were either not treated (panel C) or stimulated with 500 nM porcine BNP (BNP) or human ANP (ANP) for 5 minutes. Results are expressed as the mean amount of cGMP (pmoles) per culture±standard deviation for 3 independent determinations.
The COS-7 cells were seeded at a density of 1×10^6 cells per well in a 60 mm plate with high glucose DMEM plus 10% heat inactivated dialyzed calf serum and maintained for 12 hours at 37° C. in 7%, 93% air. […] of plasmid DNA was transfected with […] of DEAE-dextran in 2 ml of high glucose DMEM±10% Nuserum (Gibco) for 4 hours. Cells were shocked with 20% glycerol in PBS for 1 minute, fresh medium was added and cells were maintained for 72 hours prior to stimulation. Non-treated cultures were incubated at 37° C. in DMEM with 25 mM Hepes pH 7.2, […] IBMX at 37° C. for 10 minutes, medium was aspirated and 6% trichloroacetic acid (TCA) was added. Stimulated samples were treated for an additional 5 minutes in the presence of 500 nM peptide before TCA treatment. Samples were frozen at -20° C. for 1 hr, thawed at room temperature, and cell debris was removed by centrifugation at 2500 xg for 10 minutes. Samples were extracted once with 4 volumes of water-saturated ether, briefly evaporated and assayed for cGMP as described in Table 2.

Molecule: NPRA: 120-140 kd NPRA receptor, a membrane form of guanylyl cyclase
guanylyl cyclase specific activity, fold higher than control cells [1]: six | Guanylyl Cyclase Activity [1]: 1.91 ± 0.01 pmole cGMP/min/mg protein

Molecule: [^125 l]-ANP: [^125 l]-human ANP (1800 Ci/mmole, Amersham)
Specific Binding of [^125 l]-ANP [2]: 10,694 ± 1412 cpm

Specific Binding of [^125 l]-pBNP [3]: 5,721 ± 1107 cpm | Specific Binding of [^125 l]-pBNP [2]: 3,643 ± 26 cpm
Molecule: [^125 l]-pBNP: [^125 l]-porcine BNP (600 Ci/mmol) (DSGCFGRRLDRIGSLSGLGCNVLRRY; ends and bridges not checked; also: 125I label, position not given here; UniProt P07634 106-131, looked up)

Molecule: pBNP: porcine BNP (brain natriuretic peptide) (DSGCFGRRLDRIGSLSGLGCNVLRRY; ends and bridges not checked; cysteine pairing not given here; UniProt P07634 106-131, looked up)
fold increase in cGMP over control transfected cells ([4]; NPRB, 500 nM peptide, 5 minutes): 9.7 fold | fold more effective than ANP in the activation of NPRB GC activity ([4]; NPRB, 500 nM peptide, 5 minutes, versus ANP): 6.4 fold | activation of NPRB receptor (in words) ([4]; pBNP as compared to human ANP): preferentially activated

B1: NPRB: human natriuretic peptide receptor B having the sequence of FIG. 1, expressed from pRK vector (protein, UniProt P20594 23-1047, looked up)
Atrial natriuretic peptide …: T1 sequence (P20594 23-1047)
guanylyl cyclase specific activity, fold higher than control cells [1]: about eleven | Guanylyl Cyclase Activity [1]: 3.50 ± 0.01 pmole cGMP/min/mg protein
